Measured values reported in US20250223354A1 (BIOTHEUS, published 2025).

T1: mouse TIGIT overexpressed on CHO cells (mouse, UniProt P86176 29-249)
T1 construct: whole, on cells; also called CHO-muTIGIT cells
T1 sequence (looked up): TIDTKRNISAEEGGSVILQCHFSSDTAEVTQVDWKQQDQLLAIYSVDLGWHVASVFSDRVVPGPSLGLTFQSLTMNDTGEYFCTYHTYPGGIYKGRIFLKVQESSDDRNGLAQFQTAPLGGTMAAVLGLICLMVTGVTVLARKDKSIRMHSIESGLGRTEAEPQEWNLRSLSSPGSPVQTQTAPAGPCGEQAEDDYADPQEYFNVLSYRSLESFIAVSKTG

T2: human TIGIT-his protein (human, UniProt Q495A1 22-141)
T2 construct: not shown: his tag
T2 sequence: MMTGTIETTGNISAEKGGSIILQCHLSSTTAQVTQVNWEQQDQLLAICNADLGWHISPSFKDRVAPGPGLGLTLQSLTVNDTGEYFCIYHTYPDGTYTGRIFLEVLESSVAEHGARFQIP

T3: mouse TIGIT-his protein (mouse, UniProt P86176 29-148)
T3 construct: not shown: his tag
T3 sequence: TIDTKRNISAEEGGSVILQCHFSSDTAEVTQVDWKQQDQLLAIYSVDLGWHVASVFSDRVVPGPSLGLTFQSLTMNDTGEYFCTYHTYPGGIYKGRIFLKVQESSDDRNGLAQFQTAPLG

B1: anti-TIGIT monoclonal antibody 55796-G1 (antibody, V domains shown)
VH: QLQLQESGPGLVKPAETLSLTCTVSGGSISSYDHYWTWIRQPPGKGLEWIGTVYYSGSTFHNPSLKSRVTIPVDTSKNQFSLKLSSVTAADTAVYYCARVGPDVSHPPFDYWGQGTLVTVSS
VL: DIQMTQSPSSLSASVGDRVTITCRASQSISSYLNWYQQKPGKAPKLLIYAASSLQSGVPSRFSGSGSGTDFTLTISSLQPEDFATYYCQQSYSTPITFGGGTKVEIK
notes: Wild-type human IgG1 heavy chain constant region, human kappa light chain constant region
B2: anti-TIGIT monoclonal antibody 55796-G1LALA (antibody, V domains shown)
VH: B1 VH
VL: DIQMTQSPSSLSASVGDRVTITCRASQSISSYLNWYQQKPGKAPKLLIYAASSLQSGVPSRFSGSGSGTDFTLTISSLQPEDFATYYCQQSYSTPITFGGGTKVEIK
notes: Human IgG1 heavy chain constant region modified by L234A, L235A; human kappa light chain constant region; HEK293

Experiments:
[1] = molecular target: T4, cynomolgus TIGIT overexpressed on CHO cells (cynomolgus, UniProt A0A7N9I9V4 89-312); test: flow cytometry, CHO-cynoTIGIT cells
T4 construct: whole, on cells; also called CHO-cynoTIGIT cells
Excerpt: Specifically, CHO cells overexpressing human TIGIT (CHO-huTIGIT cells), CHO cells overexpressing cynomolgus TIGIT (CHO-cynoTIGIT cells) and CHO cells overexpressing mouse TIGIT (CHO-muTIGIT cells) were generated by transfection of the pCHO1.0 vector (purchased from Invitrogen) with cDNA encoding human TIGIT, cynomolgus TIGIT and mouse TIGIT cloned into the multiple cloning site (MCS), respectively, followed by pressure screening. The overexpressing cells were expanded and adjusted to an appropriate cell density, and added to a 96-well flow cytometry plate. After centrifugation, the cells were added with a gradiently diluted sample to be tested, and incubated at 4° C. for 30 minutes. The cells were washed twice with PBS, and added with a fluorescent secondary antibody correspondingly diluted to an appropriate concentration, then incubated at 4° C. for 30 minutes, and washed twice with PBS. Cells were resuspended with PBS, and detected on a CytoFlex flow cytometer, and the corresponding MFI was calculated. Graphpad software was used for graphical analysis to obtain EC₅₀ values.

[2] = molecular target: T1, mouse TIGIT overexpressed on CHO cells; test: flow cytometry, competition with mouse CD155-mouse IgG2a Fc (2 ug/mL) on CHO-muTIGIT cells
Procedure: The CHO-muTIGIT cells were expanded and adjusted to a cell density of 2×10⁶ cells/mL, added to a 96-well flow plate at 100 μL/well, and centrifuged for later use. The purified antibodies were diluted 3-fold with PBS starting at 400 nM for a total of 12 concentration gradients. […] APC-conjugated goat anti-mouse IgG antibody diluted 100-fold with PBS was added at 100 μL/well, incubated at 4° C. for 30 minutes, and washed twice with PBS. Cells were resuspended with PBS at 100 μL/well, and detected on a CytoFlex flow cytometer, and the corresponding MFI was calculated. Graphpad software was used for graphing analysis to obtain IC₅₀ values.

[3] = molecular target: T5, cynomolgus monkey TIGIT-his protein (cynomolgus monkey); test: BLI (ForteBio), IgG on AHQ sensor, 100 nM TIGIT-his, monovalent, 1:1 model
T5 construct: also called Cynomolgus TIGIT-his; not shown: his tag
Procedure: (§1) Biofilm layer optical interference technology (ForteBio) was used to determine the binding and dissociation […] values of the anti-TIGIT monoclonal antibodies obtained in Example 1 to human, cynomolgus monkey and mouse TIGIT. Fortebio affinity measurements were performed according to existing methods (Este, P et al., High throughput solution-based measurement of antibody-antigen affinity and epitope binning. Mabs, 2013.5(2): p 270-8).
(§2) The antibody-loaded sensor was incubated in 100 nM TIGIT-his antigen to the plateau phase, and then the sensor was transferred to an analysis buffer and incubated for at least 2 minutes for measuring dissociation rate. The kinetic analysis was performed using a 1:1 binding model.

human TIGIT-his protein = molecular target: T2, human TIGIT-his protein; test: as above
Procedure: as §1, §2

mouse TIGIT-his protein = molecular target: T3, mouse TIGIT-his protein; test: as above
Procedure: as §1, §2

T5 sequence (chain, as listed by the source): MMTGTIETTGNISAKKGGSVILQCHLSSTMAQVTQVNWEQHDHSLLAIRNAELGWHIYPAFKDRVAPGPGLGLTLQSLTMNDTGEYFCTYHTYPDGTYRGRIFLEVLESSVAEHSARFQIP
T4 sequence (A0A7N9I9V4 entry or part of it): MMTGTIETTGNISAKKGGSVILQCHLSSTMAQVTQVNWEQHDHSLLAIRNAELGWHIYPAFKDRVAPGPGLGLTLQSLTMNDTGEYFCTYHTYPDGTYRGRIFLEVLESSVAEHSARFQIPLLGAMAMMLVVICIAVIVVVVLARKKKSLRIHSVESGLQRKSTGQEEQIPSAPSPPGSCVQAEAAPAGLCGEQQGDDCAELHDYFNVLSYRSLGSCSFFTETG

Binder | EC50 [1] [nM] | IC50 [2] [nM] | Kd [3] [nM] | Kd (human TIGIT-his protein) [nM] | Kd (mouse TIGIT-his protein) [nM]
B1 | 1.32 | 1.5 | 4.72 | 0.199 | 96
B2 | 1.34 | 1.56 | 4.9 | 0.21 | 61
